In US20150344548A1 (XBIOTECH, published 2015):

Target: T1, commercial wildtype SpA (Staphylococcus aureus protein A) (Staphylococcus aureus, UniProt A0A0H3K686 37-477)
T1 construct: Bought wildtype SpA; also called SpA-coated beads; antigen
Assay: Bio-Layer Interferometry (ForteBio Octet Red 96), 20 nM antigen

T1 sequence (A0A0H3K686 37-477 limits assumed): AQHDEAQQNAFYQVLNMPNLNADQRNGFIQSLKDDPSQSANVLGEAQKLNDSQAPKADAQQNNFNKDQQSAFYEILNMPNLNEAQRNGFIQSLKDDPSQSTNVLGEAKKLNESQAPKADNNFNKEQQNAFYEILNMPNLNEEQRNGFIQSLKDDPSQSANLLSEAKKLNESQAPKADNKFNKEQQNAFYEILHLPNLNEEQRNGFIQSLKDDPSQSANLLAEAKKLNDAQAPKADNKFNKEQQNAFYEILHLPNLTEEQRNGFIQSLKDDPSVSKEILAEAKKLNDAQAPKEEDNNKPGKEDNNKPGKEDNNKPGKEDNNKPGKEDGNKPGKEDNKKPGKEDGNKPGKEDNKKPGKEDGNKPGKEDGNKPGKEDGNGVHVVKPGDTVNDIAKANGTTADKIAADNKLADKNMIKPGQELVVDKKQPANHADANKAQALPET

B1: PA7.2-G3 Ab (antibody)
heavy: EVQLVESRGGLVQPGGSLRLSCAASGFTFSNYAMSWVRQAPGKGLEWVSTISGSDGGTYYADSVKGRFTISRDNSGNTVYLQMNSLREDDTAVYYCARVGLSAPVTFFDFWGQGTLVTVSSASTKGPSVFPLAPCSRSTSGGTAALGCLVKDYFPEPVTVSWNSGALTSGVHTFPAVLQSSGLYSLSSVVTVPSSSLGTQTYTCNVNHKPSNTKVDKRVELKTPLGDTTHTCPRCPEPKSCDTPPPCPRCPEPKSCDTPPPCPRCPEPKSCDTPPPCPRCPAPELLGGPSVFLFPPKPKDTLMISRTPEVTCVVVDVSHEDPEVQFKWYVDGVEVHNAKTKPREEQYNSTFRVVSVLTVLHQDWLNGKEYKCKVSNKALPAPIEKTISKTKGQPREPQVYTLPPSREEMTKNQVSLTCLVKGFYPSDIAVEWESSGQPENNYNTTPPMLDSDGSFFLYSKLTVDKSRWQQGNIFSCSVMHEALHNRFTQKSLSLSPGK
light: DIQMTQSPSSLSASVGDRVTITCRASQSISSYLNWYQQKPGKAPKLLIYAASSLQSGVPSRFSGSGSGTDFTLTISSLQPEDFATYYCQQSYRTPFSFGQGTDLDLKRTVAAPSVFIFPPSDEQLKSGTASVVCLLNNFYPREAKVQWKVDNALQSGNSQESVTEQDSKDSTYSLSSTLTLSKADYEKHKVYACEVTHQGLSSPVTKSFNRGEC
notes: Human IgG3; copies: 2 + 2
Kd: < 1 pM
